We go through 1 molecule from patent US20130122008A1, “Anti-IL 1- ß Antibody Combination Therapy” (NOVARTIS AG, priority 2009, published 2013).

What all share (format): in vivo, human
Assay [1] deals with patients with type 2 diabetes mellitus (T2DM). The assay is described as follows: High sensitive C-reactive protein (hsCRP) in clinical study of ACZ885 in T2DM patients on metformin. As to conditions: single i.v. dose 0.03, 0.1, 0.3, 1.5 mg/kg, Week 4, on stable metformin. The protocol: CRP is one of the “acute phase” proteins, the serum or protein levels of which rise during general, nonspecific response to infectious and non-infectious inflammatory processes such as rheumatoid arthritis, cardiovascular disease and peripheral vascular disease. CRP is synthesized in the liver and is present in trace amounts in serum or plasma. The C-Reactive Protein HS assay is performed at Covance Central Laboratory Services by immunonephelometry using the Siemens BNII Nephelometer. Polystyrene particles coated with monoclonal antibodies to CRP are agglutinated when mixed with samples containing CRP. The intensity of the scattered light in the nephelometer depends on the CRP content of the sample and therefore the CRP concentration can be determined versus dilutions of a standard of a known concentration The method has an inter-assay precision of 2.1-5.7% CV, and an intra-assay precision of 2.3-4.4% (determined by assaying 10 replicate assays of a sample then evaluating the coefficient of variation). CRP accuracy is evaluated by comparison with College of American Pathologists (CAP) Cardiac Risk Survey. A multi center, randomized, double blind, placebo-controlled, dose escalation study of the safety, tolerability, pharmacokinetics and pharmacodynamics of ACZ885 administered intravenously to patients with type 2 diabetes mellitus. […]

The test system is the same in assay [2]. The assay can be described thus: Plasma glucose (fasting and OGTT) in clinical study of ACZ885 in T2DM patients on metformin. How it is done:
The glucose assay is a hexokinase enzymatic method. Hexokinase catalyzes the phosphorylation of glucose with adenosine triphosphate. The glucose-6-phosphate is then oxidized to 6-phosphogluconate in the presence of NAD by the enzyme glucose-6-phosphate dehydrogenase. The amount of NADPH formed during the reaction is equivalent to the amount of D-glucose in the specimen and is measured photometrically by the increase in absorbance. The method has an inter-assay precision of 5.1-6.2% CV, and an intra-assay precision of 1.7-2.5% (determined by assaying 50 replicate assays of a sample then evaluating the coefficient of variation). The method is specific for glucose; no other carbohydrate is oxidized. A multi center, randomized, double blind, placebo-controlled, dose escalation study of the safety, tolerability, pharmacokinetics and pharmacodynamics of ACZ885 administered intravenously to patients with type 2 diabetes mellitus. The aim of the study is to compare the pharmacokinetic and pharmacodynamic effects of five doses (i.v. administration) of ACZ885 with placebo in patients with type 2 diabetes mellitus (T2DM). […] OGTT was administered at Baseline, 4 and 12 wk post-dose. The subsequent cohorts were included in the evaluation of pharmacodynamic, pharmacokinetis, pharmacogenomics and pharmacogenetics. • Cohort 2 (n=90; 1:1=ACZ885:Plb): received a single dose of ACZ885 (10 mg/kg) or placebo. • Cohort 3 (n=96) received a single dose of ACZ885 0.1, 0.3, 1.5 mg/kg or placebo (1:1:1:1). • Cohort 4 (n=30; 2:1=ACZ885:P1b) received a single dose of ACZ885 (0.03 mg/kg) or placebo. The study was designed to follow the patients for 24 weeks (168 days) after the single intravenous (i.v.) administration. An analysis of covariance (ANCOVA) with treatment as the classification variable and baseline as the covariate will be used for the comparison of treatments with respect to these parameters.

For assay [3] the test system is unchanged. The assay is described as follows: Hemoglobin A1c in clinical dose escalation study of ACZ885 i.v. in T2DM patients on metformin. The protocol: The hemoglobin A1c assay is performed at Covance Central Laboratory Services (CLS) on the FDA-approved Bio-Rad Variant™ analyzer. This analyzer utilizes the principles of ion-exchange high performance liquid chromatography (HPLC) and microcomputer technology. Detection is performed at two wavelengths, 415 nm and 690 nm, to insure a stable baseline. A chromatogram of the changes in the absorbance is plotted versus the retention time. Each chromatogram printout is accompanied by a report identifying each peak detected, plus the relative percent and retention times of each peak. The method has an inter-assay precision of 1.7-2.1% CV, and an intra-assay precision of 0.9-1.1% (determined by assaying 15 replicate assays of a sample then evaluating the coefficient of variation). A multi center, randomized, double blind, placebo-controlled, dose escalation study of the safety, tolerability, pharmacokinetics and pharmacodynamics of ACZ885 administered intravenously to patients with type 2 diabetes mellitus. The aim of the study is to compare the pharmacokinetic and pharmacodynamic effects of five doses (i.v. administration) of ACZ885 with placebo in patients with type 2 diabetes mellitus (T2DM). […] OGTT was administered at Baseline, 4 and 12 wk post-dose. […]

“Also recorded” adds a separate entry of the source.

B1: ACZ885: anti-IL1β antibody, also referred to as Canakinumab; variable domains shown in SEQ ID NO:1 (VH) and SEQ ID NO:2 (VL) (antibody, V domains shown)
VH: QVQLVESGGGVVQPGRSLRLSCAASGFTFSVYGMNWVRQAPGKGLEWVAIIWYDGDNQYYADSVKGRFTISRDNSKNTLYLQMNGLRAEDTAVYYCARDLRTGPFDYWGQGTLVTVSS
VL: EIVLTQSPDFQSVTPKEKVTITCRASQSIGSSLHWYQQKPDQSPKLLIKYASQSFSGVPSRFSGSGSGTDFTLTINSLEAEDAAAYYCHQSSSLPFTFGPGTKVDIK
modifications: homo sapiens
As to B1, in assay [1], the “high-sensitivity C-reactive protein (hsCRP), dose response” value is “linear reduction (dose proportional); also recorded: linear decreasing trend”. In addition, the “OGTT glucose AUC0-4 h / post-prandial glucose” value in assay [2] (dose escalation, Week 4 post-dose, versus placebo) was “Positive trends consistent with dose escalation; also recorded: positive trend at Week 4 post-dose, albeit not statistically significant”. The “postprandial glucose (OGTT) compared to placebo” value in assay [2] (single dose 10 mg/kg, 4 weeks) is reported as “significant reduction”. In addition, the “peak plasma glucose (PPG) following OGTT” value in assay [2] (single i.v. dose 10 mg/kg, Week 4, versus placebo in change from baseline, 10 mg/kg) is recorded as “statistically significant; also recorded: reduction”; in assay [2] (single i.v. dose 10 mg/kg, Week 12) it was “maintained”. Also, the “fasting plasma glucose (FPG)” value in assay [2] (single i.v. dose 10 mg/kg, Week 4 post-dose, 10 mg/kg) is listed as “decrease”. For the same molecule, in assay [2] (single i.v. dose 10 mg/kg, four weeks after treatment, on stable metformin), the “plasma AUC glucose following OGTT” value is reported as “statistically significant decreased”. Moreover, the “fasting plasma glucose (FPG), course of effect” value in assay [2] (single i.v. dose 10 mg/kg, from Week 4 to Week 12) was “attenuated”. Besides, in assay [3] (single i.v. dose 1.5 mg/kg, Week 4, T2DM subjects on stable metformin, versus placebo, 1.5 mg/kg), the “hemoglobin A1c (HbA1c)” value is listed as “statistically significant decreased; also recorded: Significant reduction”. In addition, the “reduction in HbA1c” value in assay [3] (single i.v. dose 10 mg/kg, Week 4 to Week 12, p=0.032) was −0.32%.
